From the supplement of paper PMC10065799, “High-throughput profiling of sequence recognition by tyrosine kinases and SH2 domains using bacterial peptide display” (eLife, 2023)

Key:
Grb2 SH2 = Grb2 SH2 (UniProt P62993); assay: SH2 binding enrichment of the phosphorylated peptide, bacterial display (enrichment ratio); higher = better substrate or ligand; peptides without Tyr show the background
c-Src SH2 = assay: as above
SHP2-C SH2 = assay: as above
AncSZ = assay: phosphorylation enrichment, bacterial display (enrichment ratio); higher = better substrate or ligand; peptides without Tyr show the background
Fer (mouse) = assay: as above
c-Src = assay: as above
Fes = Fes (UniProt P07332); assay: as above
Sequence of Fes (P07332 whole entry, looked up): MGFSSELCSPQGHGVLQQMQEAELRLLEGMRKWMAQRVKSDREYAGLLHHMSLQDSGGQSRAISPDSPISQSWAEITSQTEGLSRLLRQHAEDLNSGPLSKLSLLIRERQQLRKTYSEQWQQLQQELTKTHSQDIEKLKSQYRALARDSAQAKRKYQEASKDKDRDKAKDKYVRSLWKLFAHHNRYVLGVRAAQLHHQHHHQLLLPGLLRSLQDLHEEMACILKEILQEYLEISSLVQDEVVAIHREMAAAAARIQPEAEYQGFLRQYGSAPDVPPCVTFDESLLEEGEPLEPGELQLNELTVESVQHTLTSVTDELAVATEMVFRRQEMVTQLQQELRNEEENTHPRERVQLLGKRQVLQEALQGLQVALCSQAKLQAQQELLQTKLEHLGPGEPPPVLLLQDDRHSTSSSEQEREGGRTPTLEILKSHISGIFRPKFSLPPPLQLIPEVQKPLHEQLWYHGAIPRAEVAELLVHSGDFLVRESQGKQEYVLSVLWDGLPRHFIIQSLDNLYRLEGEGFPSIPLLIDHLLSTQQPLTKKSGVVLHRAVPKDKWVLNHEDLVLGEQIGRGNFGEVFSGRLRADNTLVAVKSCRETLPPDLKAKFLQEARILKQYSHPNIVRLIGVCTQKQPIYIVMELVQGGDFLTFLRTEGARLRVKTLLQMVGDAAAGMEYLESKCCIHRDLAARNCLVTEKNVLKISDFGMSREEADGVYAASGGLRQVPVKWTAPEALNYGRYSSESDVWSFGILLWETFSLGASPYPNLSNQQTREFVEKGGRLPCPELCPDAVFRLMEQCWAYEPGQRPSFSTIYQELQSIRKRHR

MERTK = MERTK (UniProt Q12866); assay: as above
Sequence of MERTK (Q12866 whole entry, looked up): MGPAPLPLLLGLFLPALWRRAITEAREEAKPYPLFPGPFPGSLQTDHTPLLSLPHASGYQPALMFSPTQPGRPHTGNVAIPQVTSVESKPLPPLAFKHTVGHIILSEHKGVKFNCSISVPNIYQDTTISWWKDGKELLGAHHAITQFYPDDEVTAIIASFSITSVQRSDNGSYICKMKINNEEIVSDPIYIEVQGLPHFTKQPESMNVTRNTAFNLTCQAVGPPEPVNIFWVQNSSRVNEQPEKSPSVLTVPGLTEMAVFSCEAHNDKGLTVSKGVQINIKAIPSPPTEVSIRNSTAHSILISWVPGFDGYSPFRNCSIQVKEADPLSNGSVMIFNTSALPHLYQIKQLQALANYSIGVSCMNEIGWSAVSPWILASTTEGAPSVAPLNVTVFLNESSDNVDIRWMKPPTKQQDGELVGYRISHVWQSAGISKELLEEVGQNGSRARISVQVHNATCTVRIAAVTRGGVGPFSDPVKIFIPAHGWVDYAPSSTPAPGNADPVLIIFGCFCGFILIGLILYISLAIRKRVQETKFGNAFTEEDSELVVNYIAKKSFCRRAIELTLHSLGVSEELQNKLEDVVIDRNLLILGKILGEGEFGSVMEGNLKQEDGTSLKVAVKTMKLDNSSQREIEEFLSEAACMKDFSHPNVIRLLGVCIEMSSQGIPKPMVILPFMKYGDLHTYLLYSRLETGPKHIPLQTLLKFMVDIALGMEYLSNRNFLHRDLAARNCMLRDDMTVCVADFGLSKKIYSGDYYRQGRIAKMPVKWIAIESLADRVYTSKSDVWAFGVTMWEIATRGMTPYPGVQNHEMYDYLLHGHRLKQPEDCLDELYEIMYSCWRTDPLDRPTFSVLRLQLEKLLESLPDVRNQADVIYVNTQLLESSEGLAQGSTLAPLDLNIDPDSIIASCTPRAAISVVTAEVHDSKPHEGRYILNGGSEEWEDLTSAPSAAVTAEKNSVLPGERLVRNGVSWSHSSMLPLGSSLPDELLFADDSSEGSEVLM

FGFR3 = FGFR3 (UniProt P22607); assay: as above
EPHB2 = EPHB2 (UniProt P29323); assay: as above
Jak2 = Jak2 (UniProt O60674); assay: as above
Hck = Hck (UniProt P08631); assay: as above
Sequence of Hck (P08631 whole entry, looked up): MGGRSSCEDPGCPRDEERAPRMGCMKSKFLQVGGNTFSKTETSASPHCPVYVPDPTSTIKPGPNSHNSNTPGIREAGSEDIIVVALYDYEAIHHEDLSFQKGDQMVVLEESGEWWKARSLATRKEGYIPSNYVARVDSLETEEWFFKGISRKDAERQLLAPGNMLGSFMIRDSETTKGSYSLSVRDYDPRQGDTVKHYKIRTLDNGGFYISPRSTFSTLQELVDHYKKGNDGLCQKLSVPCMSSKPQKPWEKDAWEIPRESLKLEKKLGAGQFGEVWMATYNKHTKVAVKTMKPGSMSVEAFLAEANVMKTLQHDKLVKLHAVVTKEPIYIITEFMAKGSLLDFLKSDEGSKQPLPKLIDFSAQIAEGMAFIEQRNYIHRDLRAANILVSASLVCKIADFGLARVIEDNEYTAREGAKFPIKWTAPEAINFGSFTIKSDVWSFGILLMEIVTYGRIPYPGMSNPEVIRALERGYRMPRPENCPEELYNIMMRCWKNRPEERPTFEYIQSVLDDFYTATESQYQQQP

EPHB1 = EPHB1 (UniProt P54762); assay: as above
Sequence of EPHB1 (P54762 whole entry, looked up): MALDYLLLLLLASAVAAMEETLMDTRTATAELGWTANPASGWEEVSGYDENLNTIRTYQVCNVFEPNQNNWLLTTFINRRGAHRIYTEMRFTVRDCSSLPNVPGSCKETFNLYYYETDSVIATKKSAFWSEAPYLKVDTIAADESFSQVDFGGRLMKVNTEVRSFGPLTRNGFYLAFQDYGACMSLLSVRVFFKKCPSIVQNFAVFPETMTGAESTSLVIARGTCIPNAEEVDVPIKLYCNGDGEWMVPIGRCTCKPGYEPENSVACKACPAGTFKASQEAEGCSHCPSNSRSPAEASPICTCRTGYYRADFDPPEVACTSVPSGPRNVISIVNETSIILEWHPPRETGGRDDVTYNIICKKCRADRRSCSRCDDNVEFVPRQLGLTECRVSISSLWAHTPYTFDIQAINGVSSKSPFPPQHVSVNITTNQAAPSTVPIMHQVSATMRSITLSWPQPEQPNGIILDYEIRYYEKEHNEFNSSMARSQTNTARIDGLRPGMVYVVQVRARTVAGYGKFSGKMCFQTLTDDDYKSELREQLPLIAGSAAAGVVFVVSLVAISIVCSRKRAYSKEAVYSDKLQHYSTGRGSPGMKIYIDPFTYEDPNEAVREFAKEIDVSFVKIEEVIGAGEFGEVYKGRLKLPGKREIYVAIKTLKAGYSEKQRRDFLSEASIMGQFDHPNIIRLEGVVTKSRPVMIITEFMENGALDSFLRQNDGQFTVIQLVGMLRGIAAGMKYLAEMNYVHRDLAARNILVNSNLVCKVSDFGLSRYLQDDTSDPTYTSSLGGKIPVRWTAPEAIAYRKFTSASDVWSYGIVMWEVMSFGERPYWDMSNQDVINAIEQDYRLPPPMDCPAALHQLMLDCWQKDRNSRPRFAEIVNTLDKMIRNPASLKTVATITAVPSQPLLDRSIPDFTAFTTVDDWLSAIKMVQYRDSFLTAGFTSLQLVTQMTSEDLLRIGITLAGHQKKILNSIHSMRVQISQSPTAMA

FGFR1 = FGFR1 (UniProt P11362); assay: as above
Sequence of FGFR1 (P11362 whole entry, looked up): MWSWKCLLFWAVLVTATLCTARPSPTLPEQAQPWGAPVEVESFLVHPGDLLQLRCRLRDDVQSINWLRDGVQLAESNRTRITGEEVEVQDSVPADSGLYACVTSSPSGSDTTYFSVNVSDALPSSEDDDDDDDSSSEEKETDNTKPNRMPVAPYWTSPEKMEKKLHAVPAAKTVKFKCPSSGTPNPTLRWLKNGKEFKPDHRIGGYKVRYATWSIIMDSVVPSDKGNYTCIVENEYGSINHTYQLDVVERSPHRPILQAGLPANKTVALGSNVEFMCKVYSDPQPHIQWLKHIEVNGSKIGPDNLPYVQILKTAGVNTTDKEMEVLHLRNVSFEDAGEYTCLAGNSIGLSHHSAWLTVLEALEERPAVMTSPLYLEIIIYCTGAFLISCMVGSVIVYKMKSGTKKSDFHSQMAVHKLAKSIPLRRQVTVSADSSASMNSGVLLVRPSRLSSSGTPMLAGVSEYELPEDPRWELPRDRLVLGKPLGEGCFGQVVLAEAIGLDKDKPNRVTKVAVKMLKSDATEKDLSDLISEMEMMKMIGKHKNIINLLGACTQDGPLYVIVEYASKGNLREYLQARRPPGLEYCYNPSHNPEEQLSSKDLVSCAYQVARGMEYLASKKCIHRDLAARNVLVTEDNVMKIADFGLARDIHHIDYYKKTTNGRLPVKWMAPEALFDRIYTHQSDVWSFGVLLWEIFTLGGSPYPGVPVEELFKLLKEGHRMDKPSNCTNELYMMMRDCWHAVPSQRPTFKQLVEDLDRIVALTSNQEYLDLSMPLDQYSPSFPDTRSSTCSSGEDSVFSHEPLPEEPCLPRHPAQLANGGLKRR

c-Abl (mouse) = assay: as above
Fyn = Fyn (UniProt P06241); assay: as above
Sequence of Fyn (P06241 whole entry, looked up, the tested form may be a part): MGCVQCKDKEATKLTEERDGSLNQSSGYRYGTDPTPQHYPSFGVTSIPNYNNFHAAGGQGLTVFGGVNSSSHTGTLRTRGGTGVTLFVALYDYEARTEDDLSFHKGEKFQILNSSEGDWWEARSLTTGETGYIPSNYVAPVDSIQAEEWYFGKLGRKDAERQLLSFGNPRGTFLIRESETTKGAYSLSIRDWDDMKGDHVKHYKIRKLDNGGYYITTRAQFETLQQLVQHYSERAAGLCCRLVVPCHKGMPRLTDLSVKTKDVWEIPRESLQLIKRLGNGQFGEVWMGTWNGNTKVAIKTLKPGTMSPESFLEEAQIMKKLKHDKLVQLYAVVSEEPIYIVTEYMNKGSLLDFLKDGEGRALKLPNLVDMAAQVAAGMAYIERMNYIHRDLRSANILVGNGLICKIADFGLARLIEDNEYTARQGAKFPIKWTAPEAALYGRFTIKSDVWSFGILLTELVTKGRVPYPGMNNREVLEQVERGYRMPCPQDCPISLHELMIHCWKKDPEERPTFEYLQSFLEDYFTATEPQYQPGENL
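For SH2 binding enrichment of the phosphorylated peptide, bacterial display in this document: peptide library displayed on the E. coli surface as eCPX fusions, selected cells deep-sequenced, score is each peptide's frequency after selection divided by its frequency in the input.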
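For phosphorylation enrichment, bacterial display in this document: 11-residue human phosphosite peptides and single-mutation variants displayed on the E. coli surface, counted by deep sequencing, each peptide's frequency after selection divided by its frequency in the unselected input library; frequency after pTyr selection over input frequency; kinase dosed for 20-30% of maximal phosphorylation in three min.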

Row | Sequence | SH2 binding enrichment (Grb2 SH2) | SH2 binding enrichment (c-Src SH2) | SH2 binding enrichment (SHP2-C SH2) | phosphorylation enrichment (AncSZ) | phosphorylation enrichment (Fer (mouse)) | phosphorylation enrichment (c-Src) | phosphorylation enrichment (Fes) | phosphorylation enrichment (MERTK) | phosphorylation enrichment (FGFR3) | phosphorylation enrichment (EPHB2) | phosphorylation enrichment (Jak2) | phosphorylation enrichment (Hck) | phosphorylation enrichment (EPHB1) | phosphorylation enrichment (FGFR1) | phosphorylation enrichment (c-Abl (mouse)) | phosphorylation enrichment (Fyn)
1 | DFDNLYFWDQD [ERBB2_Y1221_A1216D_YF] | 0.668 | 0.333 | 0.854 | 2.2 | 2.2 | 5.27 | 1.71 | 4.6 | 7.69 | 1.07 | 1.25 | 5.15 | 1.57 | 7.58 | 0.801 | 6.47
2 | DFDNLYYWDQD [ERBB2_Y1221_A1216D] | 0.808 | 0.453 | 0.462 | 2.68 | 3.8 | 6.09 | 1.96 | 7.57 | 9.13 | 3.3 | 1.86 | 5.31 | 4.08 | 9.53 | 0.973 | 6.81
3 | DGKYSYLKVGH [GRM3_Y480_G475D] | 1.05 | 4.12 | 1.45 | 0.442 | 0.372 | 0.352 | 0.623 | 0.44 | 0.427 | 0.297 | 0.437 | 0.455 | 0.303 | 0.38 | 0.284 | 0.372
4 | DGMADYSDPSF [CDC5L_Y459_YF] | 0.781 | 0.557 | 0.662 | 1.92 | 0.592 | 0.501 | 1.2 | 0.5 | 1 | 3.21 | 1.12 | 0.63 | 1.72 | 0.911 | 1.04 | 0.488
5 | DHFNQYEQQKM [CHD7_Y75_YF] | 0.752 | 0.501 | 0.682 | 0.834 | 0.415 | 0.414 | 0.744 | 0.425 | 0.582 | 0.462 | 0.535 | 0.47 | 0.457 | 0.468 | 0.599 | 0.382
6 | DLDATYRPMYS [JUP_Y701_M697L] | 0.798 | 0.502 | 0.832 | 0.699 | 0.433 | 0.569 | 0.86 | 0.386 | 0.512 | 0.444 | 0.588 | 0.6 | 0.399 | 0.383 | 0.486 | 0.46
7 | DLDTEYGSGFP [RNASEH2A_Y206_D205E_YF] | 1.06 | 0.429 | 0.622 | 1.55 | 0.799 | 0.825 | 1.34 | 0.469 | 0.958 | 0.642 | 1.39 | 0.654 | 0.676 | 0.622 | 1.27 | 0.744
8 | DLDTEYGSGYP [RNASEH2A_Y206_D205E] | 0.7 | 0.531 | 0.464 | 1.23 | 0.505 | 0.549 | 1.01 | 0.379 | 0.652 | 0.542 | 1.17 | 0.546 | 0.652 | 0.507 | 0.727 | 0.49
9 | DMLFQYLKQIE [RPAP3_Y569_YF] | 0.93 | 0.652 | 0.851 | 1.48 | 0.462 | 0.468 | 1.22 | 0.523 | 0.59 | 0.588 | 0.976 | 0.571 | 0.684 | 0.531 | 0.577 | 0.421
10 | DNLNNYVFQGQ [GRIN2A_Y978] | 0.819 | 0.438 | 0.617 | 1.21 | 0.514 | 0.598 | 1.06 | 0.657 | 0.789 | 1.17 | 1.01 | 0.392 | 1.77 | 0.703 | 0.815 | 0.593

Second part, led by results:

Row | SH2 binding enrichment (Grb2 SH2) | SH2 binding enrichment (c-Src SH2) | SH2 binding enrichment (SHP2-C SH2) | Sequence | phosphorylation enrichment (AncSZ) | phosphorylation enrichment (Fer (mouse)) | phosphorylation enrichment (c-Src) | phosphorylation enrichment (Fes) | phosphorylation enrichment (MERTK) | phosphorylation enrichment (FGFR3) | phosphorylation enrichment (EPHB2) | phosphorylation enrichment (Jak2) | phosphorylation enrichment (Hck) | phosphorylation enrichment (EPHB1) | phosphorylation enrichment (FGFR1) | phosphorylation enrichment (c-Abl (mouse)) | phosphorylation enrichment (Fyn)
11 | 1.03 | 0.744 | 0.895 | DEEPPHRGPFC [SASH1_Y551_Y551H] | 1.01 | 0.528 | 0.475 | 1.06 | 0.41 | 0.651 | 0.783 | 0.795 | 0.542 | 0.619 | 0.645 | 0.609 | 0.489
12 | 0.774 | 0.481 | 0.627 | DENWFYMRAAS [RPS19_Y54_T55M] | 1.35 | 0.594 | 0.384 | 1.52 | 0.379 | 0.933 | 0.654 | 1.25 | 0.485 | 0.718 | 0.654 | 0.869 | 0.43
13 | 0.905 | 0.45 | 0.719 | DKITQYVEEVR [STX2_Y49_K54R] | 0.999 | 0.486 | 0.417 | 1.08 | 0.411 | 0.609 | 0.551 | 0.872 | 0.517 | 0.739 | 0.477 | 0.605 | 0.427
14 | 0.824 | 3.41 | 1.24 | DLAAQYTTVGR [SGSH_Y240] | 0.701 | 0.382 | 0.912 | 0.664 | 0.494 | 0.53 | 0.415 | 0.724 | 0.799 | 0.407 | 0.462 | 0.542 | 0.52
15 | 0.77 | 0.469 | 0.627 | DNEALYDICFR [TUBB2B_Y208] | 3.21 | 10.2 | 5.86 | 1.6 | 7.51 | 0.917 | 4.88 | 1.38 | 6.43 | 4.63 | 0.618 | 3.58 | 6.65
16 | 0.957 | 1.75 | 0.737 | DPHQQYYIAMD [TBX15_Y159] | 1.05 | 0.52 | 1.55 | 0.881 | 2.7 | 4.36 | 0.593 | 0.996 | 0.669 | 0.735 | 6.27 | 0.59 | 0.625
